Test results as given in patent US20200392528A1, “IMPROVED PLANT EPSP SYNTHASES AND METHODS OF USE” (PIONEER HI-BRED INTERNATIONAL, INC., priority 2017, published 2020).
Positions count from the first letter of the chain named. Numbers in names are those of the source. Like-named read-outs stand apart in the source and are kept apart here.

Key:
[1] = system: soybean EPSPS; assay: kcat gly: enzyme turnover under application conditions, soybean variants; assay type: biochemical; settings: for kcat gly: soybean variants
Procedure: (§1) A more straight-forward, accurate and meaningful parameter is one in which one rate measurement is performed under presumed in vivo conditions, if known. To establish a set of conditions that mimic those under which the mutated enzyme needs to perform, the concentrations of PEP and S3P were set low (30 uM, subject to the sensitivity of assay conditions) to approach the presumed intracellular concentrations (˜15 uM, the approximate values of KM for both PEP and S3P). Glyphosate is included at 1 mM. The pH is set at 7.0 and ionic strength at 100 mM KCl, also to mimic known in vivo conditions. Ethylene glycol is present at 5% (v/v) to approximate the dielectric constant of intracellular fluid. The parameter is termed “enzyme turnover under application conditions”, which is herein shortened to “kcat gly”. The conventional formatting of the expression “kcat” is not used, to avoid this term being characterized as a standard kinetic constant.
EPSPS activity was determined by quantifying the phosphate generated from the EPSPS reaction. Release of inorganic phosphate was coupled to its reaction with 2-amino-6-mercapto-7-methylpurine ribonucleoside (MESG), catalyzed by purine nucleoside phosphorylase, according to previously described protocols. To determine the kcat gly, enzyme preparations were normalized to 0.1 mg/ml and four- to six-microliter aliquots of normalized enzyme were added to the wells of a low UV-absorbing 96-well assay plate (Greiner UV-Star). Reactions were started with the addition of 2×147 μl of reaction mixture containing 25 mM Hepes, pH 7.0, 100 mM KCl, 5% ethylene glycol, 30 μM each of PEP and S3P, 0.15 mM MESG, 1.5 U/ml purine nucleoside phosphorylase (Sigma N8264) and 1 mM glyphosate. Absorbance was monitored at 4 sec intervals for 50 sec with a Spectramax plate reader (Molecular Devices). […] Division by the enzyme concentration (0.04 to 0.1 uM, depending on activity) yields “kcat gly” in units of min^−1. […]
A library was constructed and screened as above. […] The library was constructed, screened and evaluated by the methods described in Examples 1 and 2.

[2] = biological target: CP4 EPSPS (Agrobacterium sp., UniProt Q9R4E4); assay: substrate saturation kinetic analysis (kcat, Km, Ki); assay type: biochemical, Agrobacterium sp. strain CP4
Procedure: (§2) EPSPS activity was determined by quantifying the phosphate generated from the EPSPS reaction. Release of inorganic phosphate was coupled to its reaction with 2-amino-6-mercapto-7-methylpurine ribonucleoside (MESG), catalyzed by purine nucleoside phosphorylase, according to previously described protocols. To determine the kcat gly, enzyme preparations were normalized to 0.1 mg/ml and four- to six-microliter aliquots of normalized enzyme were added to the wells of a low UV-absorbing 96-well assay plate (Greiner UV-Star). Reactions were started with the addition of 2×147 μl of reaction mixture containing 25 mM Hepes, pH 7.0, 100 mM KCl, 5% ethylene glycol, 30 μM each of PEP and S3P, 0.15 mM MESG, 1.5 U/ml purine nucleoside phosphorylase (Sigma N8264) and 1 mM glyphosate. Absorbance was monitored at 4 sec intervals for 50 sec with a Spectramax plate reader (Molecular Devices). […] Division by the enzyme concentration (0.04 to 0.1 uM, depending on activity) yields “kcat gly” in units of min^−1.
Combinatorial shuffling, maize native EPSPS—The mutations discovered were used to construct a combinatorial library designed to explore combinations of the desensitizing mutations in novel sequence contexts provided by the newly identified neutral mutations. Note that the amino acid position numbering in this Example 10 refers to the relative position of native maize EPSPS without the N-terminal Met. Therefore, G101A in this Example would be G102A in reference to SEQ ID NO: 1, wherein the maize EPSPS sequence has a Met added at the N-terminal. The diversity used was the same with the addition of G101A, T102 (IALGV) and P106(WA). In all, 43 substitutions at 29 positions were selected. The library was synthesized entirely from oligonucleotides, using the known technique of synthetic shuffling and was termed NatFS (Native, fully synthetic). The vector DNA of the library was transformed into the BL21(DE3) Tuner-AroA knockout strain and the cells were plated onto M9 medium containing either 30 mM glyphosate and 30 μM of the lac operon inducer isopropyl β-D-1-thiogalactopyranoside (IPTG) or 50 mM glyphosate and no IPTG. The 184 colonies that grew on either plate were picked and subjected to a second tier of screening in which EPSPS proteins were purified and activity measured at high (200 μM) and low (50 μM) PEP and S3P, with or without 10 μM glyphosate. Selected variants were subjected to substrate saturation kinetic analysis.

[3] = biological target: EPSPS from Agrobacterium sp. strain CP4 (Agrobacterium sp., UniProt Q9R4E4); assay: kgly: enzyme turnover at 30 μM PEP and S3P, 1 mM glyphosate, CP4 EPSPS; assay type: biochemical
Source text: A customized parameter for predicting performance in the treated plant that would be a more accurate representation than kcat/Km*Ki. […] However, kcat/Km*Ki may be inadequate for predicting the reaction velocity under the conditions of the application (plants sprayed with glyphosate) because it may neglect concentrations of substrate and inhibitor, factors that are not intrinsic to the enzyme, but on which the reaction rate depends. Therefore, libraries derived from C1 on in FIG. 2 were evaluated with a single rate measurement designed to take all factors in the rate equation for competitive inhibition into account. […] Glyphosate was included at 1 mM, a concentration attainable in tissues, especially meristems, receiving metabolite flow from treated leaves. The pH (7.0), ionic strength (100 mM KCl) and co-solvent concentration (5% ethylene glycol) were also intended to mimic in vivo conditions. The unit for the parameter is reaction rate (μM·min^−1) per enzyme concentration (μM), or min^−1, describing the enzyme turnover under application conditions, which we abbreviate as “kgly”. Although individual kinetic parameters for key variants were obtained, kgly was adopted a parameter needed both for medium throughput screening and for ultimate evaluation of fitness.

[4] = system: rice EPSPS; assay: kcat gly: enzyme turnover under application conditions, rice orthologs; assay type: biochemical, rice (Oryza sativa); settings: Table 5
Procedure: as §1, §2
Only variable positions are shown. Naturally occurring differences in the rice sequence from the maize sequence are shown. The mutations designed to create rice orthologs of selected maize variants are shown. Genes designed to encode the rice orthologs were synthesized by a commercial provider and expressed and purified as described above.
Fitness is indicated by the parameter kcat gly, defined in Example 1.

B1: Gm F3: soybean EPSPS variant from combinatorial library, SEQ ID NO: 13 (protein)
chain: MAAAEKPSTSPEIVLEPIKDFSGTITLPGSKSLSNRILLLAALSEGTTVVDNLLYSEDIHYMLGALRTLGLRVEDDKTTKQAIVEGCGGLFPTSKESKDEINLFCGNAATAMRPLTAAVVAAGGNASYVLDGVPRMRERPIGDLVAGLKQLGADVDCFLGTNCPPVRVNGKGGLPGGKVKLSGSVSSQYLTALLMAAPLALGDVEIEIVDKLISVPYVEMTLKLMERFGVSVEHSGNWDRFLVHGGQKYKSPGNAFVEGDASSASYLLAGAAITGGTITVNGCGTSSLQGDVKFAEVLEKMGAKVTWSENSVTVSGPPRDFSGRKVLRGIDVNMNKMPDVAMTLAVVALFANGPTAIRDVASWRVKESERMIAICTELRKLGATVEEGPDYCVITPPEKLNVTAIDTYGDHRMAMAFSLAACGDVPVTIKDPGCTRKTFPDYFEVLERLTKH
modifications: Glycine max
Question: Which kcat gly [1] does the source give for B1 here?
Answer: 0.938 s⁻¹

B2: Gm F3-02-A7: soybean EPSPS variant, SEQ ID NO: 15 (protein)
chain: B1 chain with V340A
modifications: Glycine max
Question: With B2 as the molecule, how does the kcat gly [1] read?
Answer: 1.34 s⁻¹

B3: Gm F3-V340A: soybean EPSPS variant Gm F3 with V340A, SEQ ID NO: 14 (protein)
chain: B1 chain with V340A
modifications: Glycine max
Question: Which “fitness (kcat gly) compared with Gm F3” value [1] does the source give for B3 here?
Answer: significant fitness improvement

B4: CP4 EPSPS: Class II EPSPS from Agrobacterium sp. strain CP4 (protein, UniProt Q9R4E4 1-455, looked up)
3-phosphoshikimate …: MSHGASSRPATARKSSGLSGTVRIPGDKSISHRSFMFGGLASGETRITGLLEGEDVINTGKAMQAMGARIRKEGDTWIIDGVGNGGLLAPEAPLDFGNAATGCRLTMGLVGVYDFDSTFIGDASLTKRPMGRVLNPLREMGVQVKSEDGDRLPVTLRGPKTPTPITYRVPMASAQVKSAVLLAGLNTPGITTVIEPIMTRDHTEKMLQGFGANLTVETDADGVRTIRLEGRGKLTGQVIDVPGDPSSTAFPLVAALLVPGSDVTILNVLMNPTRTGLILTLQEMGADIEVINPRLAGGEDVADLRVRSSTLKGVTVPEDRAPSMIDEYPILAVAAAFAEGATVMNGLEELRVKESDRLSAVANGLKLNGVDCDEGETSLVVRGRPDGKGLGNASGAAVATHLDHRIAMSFLVMGLVSENPVTVDDATMIATSFPEFMDLMAGLGAKIELSDTKAA
Question: Which kcat ([2]; CP4 EPSPS) does the source give for B4 here?
Answer: 6.85 ± 0.083 s⁻¹

Question: And the Ki ([2]; Ki for glyphosate)?
Answer: 1970 ± 276 µM

Question: And the Km ([2]; apparent Km, PEP present at 10 times its Km, read-out: Km S3P)?
Answer: 5.2 ± 0.5 µM

Question: And the Km ([2]; apparent Km, S3P present at 10 times its Km, read-out: Km PEP)?
Answer: 15.5 ± 0.4 µM

Question: What about the “kcat/Km*Ki” value ([2]; calculated with Km for PEP) of the same molecule?
Answer: 52240

Question: And the Km ([2]; read-out: Km for PEP)?
Answer: 15.5 µM

Question: What about the kgly [3] of the same molecule?
Answer: 176 ± 1.6 min⁻¹

B5: Os D2-67: rice EPSPS ortholog of Zm D2-67, SEQ ID NO: 17 (protein, listed as Oryza sativa)
chain: MRKWEEIVLQPIREISGAVQLPGSKSLSNRILLLSALSEGTTVVDNLLNSEDVHYMLEALKALGLSVEHDKVAKRAVVVGCGGRFPVEKDAKGEVQLFCGNAATAMRPLTAAVTAAGGNATYVLDGVPRMRERPIGDLVVGLKQLGADVDCFLGTECPPVRVKGIGGLPGGKVKLSGSISSQYLSALLMAAPLALGDVEIEIIDKLISLPYVEMTLRLMERFGVKAEHSDSWDRFYIKGGQKYESPGNAYVEGDASSASYFLAGAAITGGTVTVQGCGTTSLQGDVKFAEVLEMMGAKVTWTDTSVTVTGPPREPYGKKHLKAVDVNMNKMPDAAMTLAVVALFADGPTAIRDVASWRVKETERMVAIRTELTKLGASVEEGPDYCIITPPPKLNITAIDTYGDHRMAMAFSLAACADVPVTIRDPGCTRKTFPNYFDVLSTFVRN
Question: With B5 as the molecule, how does the kcat gly [4] read?
Answer: 1.7 s⁻¹

B6: Os D2: rice EPSPS ortholog of Zm D2, SEQ ID NO: 16 (protein, listed as Oryza sativa)
chain: B5 chain
Question: For B6, which kcat gly [4] is on record?
Answer: 1.48 s⁻¹

B7: Os F3: rice EPSPS ortholog of Zm F3, SEQ ID NO: 18 (protein, listed as Oryza sativa)
chain: B5 chain with R2A, W4A, H69A, R84K, G93E, L209I, E244K, A334V, T362S, P392E
Question: For B7, which kcat gly [4] is on record?
Answer: 0.65 s⁻¹

B8: Os F3-88: rice EPSPS ortholog of Zm F3-88, SEQ ID NO: 19 (protein, listed as Oryza sativa)
chain: MAKAEEIVLQPIREISGAVQLPGSKSLSNRILLLSALSEGTTVVDNLLNSEDVGYMLEALKALGLSVEADKVAKRAVVVGCGGKFPVEKDAKEEVQLFCGNAATAMRPLTAAVTAAGGNATYVLDGVPRMRERPIGDLVVGLKQLGADVDCFLGTECPPVRVKGIGGLPGGKVKLSGSISSQYLSALLMAAPLALGDVEIEIIDKLISIPYVEMTLVLMERFGVKAYHSDSWDRFYIKGGQKYKSPGNAYVEGDASSASYFLAGAAITGGTVTVQGCGTTSLQGDVKFAEVLEMMGAAVTWTDTSVTVTGPPREPYGKKHLKAVDVNMNKMPDAAMTLAVVALFADGPTAIRDVASWRVKESERMVAIRTELTKLGASVEEGPDYCIITPPEKLNITAIDTYGDHRMAMAFSLAACADVPVTIRDPGCTAKTFPNYFDVLSTFVRN
Question: B8 was tested. Which kcat gly [4] did it give?
Answer: 1.04 s⁻¹
